# Patent publication US20200024360A1 (Janssen / Centocor, published 2020)
# Columns and labels:
# [1] = target: T1, human PSMA (prostate specific membrane antigen), full length (human, UniProt Q04609 1-750); experiment: flow cytometry cell binding assay, bispecific antibody titrated on LNCaP cells (human PSMA)
# T1 construct: On LNCaP or C4-2B cells (endogenous) or transduced HEK293F cells; also called FOLH1_HUMAN; hPSMA
# Description: PSMA×CD3 bispecific antibodies were tested for binding to PSMA positive cell lines LNCAP, human PSMA-HEK, Chimpanzee-PSMA-HEK and Cynomolgous monkey PSMA-HEK. To assess the binding capabilities of the PSMA bispecific antibodies, the cell-binding assay was utilized (described previously). Briefly, PSMA expressing tumor cells are bound by bispecific antibodies at known concentrations and the bound antibody is detected by an anti-human kappa light chain PE conjugated detection reagent (Invitrogen). The Mean Fluorescents Intensity (MFI) is the measure of bound bispecific antibody. The MFI is converted to a relative EC₅₀. EC₅₀ is a commonly used dose-response curve, where the half maximal effective concentration or the EC₅₀ point is defined as the inflection point of the curve. EC₅₀ s were determined by measuring cell bound bispecific and known concentrations. […] The dose response curves were then diluted down to that of background or no bispecific binding. The inflection point of this curve reflects the EC₅₀ point. The calculated EC₅₀ is determined by taking the ug/ml amount of bispecific antibody at the EC₅₀ point and converting it to a molarity value based on the MW of the bispecific antibody. Bispecific antibodies were normalized for protein concentration and then incubated with the same number of cells expressing either human or cyno PSMA. […]
# [2] = target: T1, human PSMA (prostate specific membrane …); experiment: cell-based or functional assay
binder,measurement,setting,value
"PS3B27 (bispecific antibody, human IgG4 S228P, kappa, lambda, F234A L235A, IgG4 PAA; PSMA arm chains first, then CD3 arm (F405L, R409K); also called PSMB127 x CD3B219; PS2B27) heavy 1: not shown light 1: not shown heavy 2: EVQLVESGGGLVQPGGSLRLSCAASGFTFNTYAMNWVRQAPGKGLEWVARIRSKYNNYATYYAASVKGRFTISRDDSKNSLYLQMNSLKTEDTAVYYCARHGNFGNSYVSWFAYWGQGTLVTVSSASTKGPSVFPLAPCSRSTSESTAALGCLVKDYFPEPVTVSWNSGALTSGVHTFPAVLQSSGLYSLSSVVTVPSSSLGTKTYTCNVDHKPSNTKVDKRVESKYGPPCPPCPAPEAAGGPSVFLFPPKPKDTLMISRTPEVTCVVVDVSQEDPEVQFNWYVDGVEVHNAKTKPREEQFNSTYRVVSVLTVLHQDWLNGKEYKCKVSNKGLPSSIEKTISKAKGQPREPQVYTLPPSQEEMTKNQVSLTCLVKGFYPSDIAVEWESNGQPENNYKTTPPVLDSDGSFLLYSKLTVDKSRWQEGNVFSCSVMHEALHNHYTQKSLSLSLGK light 2: QTVVTQEPSLTVSPGGTVTLTCRSSTGAVTTSNYANWVQQKPGQAPRGLIGGTNKRAPGTPARFSGSLLGGKAALTLSGVQPEDEAEYYCALWYSNLWVFGGGTKLTVLGQPKAAPSVTLFPPSSEELQANKATLVCLISDFYPGAVTVAWKADSSPVKAGVETTTPSKQSNNKYAASSYLSLTPEQWKSHRSYSCQVTHEGSTVEKTVAPTECS",EC50 (read off the curve),[1],~7 nM
same,"EC50, T-cell dependent cytotoxicity (caspase 3/7), C-42B, donor M2550",[2],0.11 nM
same,"EC50, T-cell dependent cytotoxicity (caspase 3/7), C-42B, donor M5524",[2],0.06 nM
same,"EC50, T-cell dependent cytotoxicity (caspase 3/7), C-42B, donor M5772",[2],0.03 nM
same,"EC50, T-cell dependent cytotoxicity (caspase 3/7), C-42B, donor M7259",[2],0.06 nM
same,"EC50, T-cell dependent cytotoxicity (caspase 3/7), C-42B, donor M7444",[2],0.05 nM
same,"EC50, T-cell dependent cytotoxicity (caspase 3/7), LNCaP FGc, donor M2550",[2],0.27 nM
same,"EC50, T-cell dependent cytotoxicity (caspase 3/7), LNCaP FGc, donor M5524",[2],0.09 nM
same,"EC50, T-cell dependent cytotoxicity (caspase 3/7), LNCaP FGc, donor M5772",[2],0.04 nM
same,"EC50, T-cell dependent cytotoxicity (caspase 3/7), LNCaP FGc, donor M7259",[2],0.05 nM
same,"EC50, T-cell dependent cytotoxicity (caspase 3/7), LNCaP FGc, donor M7444",[2],0.09 nM
